Data: patent publication US20240376204A1 (JIANGSU HENGRUI PHARMACEUTICALS, published 2024)
Where a chain is given by its changes, count along the chain named. Names may count otherwise.

T1: human PVRIG expressed on cells (human, UniProt Q6DKI7 41-326)
T1 construct: whole, on cells; also called HEK293 cells expressing human PVRIG; cells overexpressing human PVRIG
T1 sequence (looked up): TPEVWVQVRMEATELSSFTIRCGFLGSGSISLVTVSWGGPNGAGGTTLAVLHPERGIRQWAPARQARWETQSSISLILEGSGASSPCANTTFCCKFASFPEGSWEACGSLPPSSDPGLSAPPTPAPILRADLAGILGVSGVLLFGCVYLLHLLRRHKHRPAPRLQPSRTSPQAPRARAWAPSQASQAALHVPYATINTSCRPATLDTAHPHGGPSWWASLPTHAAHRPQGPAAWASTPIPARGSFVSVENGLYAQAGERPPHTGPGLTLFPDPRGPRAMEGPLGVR

T2: his-tagged human PVRIG (h-PVRIG-his) recombinant protein (human, UniProt Q6DKI7 41-171, limits assumed)
T2 construct: Acrobiosystems; also called Human PVRIG-his; human PVRIG recombinant protein; not shown: his tag
T2 sequence (looked up): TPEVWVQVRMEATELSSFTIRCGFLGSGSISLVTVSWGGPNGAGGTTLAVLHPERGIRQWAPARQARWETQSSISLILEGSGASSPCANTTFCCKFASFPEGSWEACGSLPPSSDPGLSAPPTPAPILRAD

T3: human TIGIT recombinant protein (human, UniProt Q495A1 22-141)
T3 construct: also called human TIGIT antigen (AcroBiosystem, TIT-H52H3); TIGIT protein
T3 sequence (looked up): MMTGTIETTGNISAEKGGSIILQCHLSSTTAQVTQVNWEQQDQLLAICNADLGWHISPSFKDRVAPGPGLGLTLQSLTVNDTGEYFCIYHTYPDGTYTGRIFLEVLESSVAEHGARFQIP

B1: 1708-151H7 (bispecific antibody, human IgG4 S228P, kappa)
heavy: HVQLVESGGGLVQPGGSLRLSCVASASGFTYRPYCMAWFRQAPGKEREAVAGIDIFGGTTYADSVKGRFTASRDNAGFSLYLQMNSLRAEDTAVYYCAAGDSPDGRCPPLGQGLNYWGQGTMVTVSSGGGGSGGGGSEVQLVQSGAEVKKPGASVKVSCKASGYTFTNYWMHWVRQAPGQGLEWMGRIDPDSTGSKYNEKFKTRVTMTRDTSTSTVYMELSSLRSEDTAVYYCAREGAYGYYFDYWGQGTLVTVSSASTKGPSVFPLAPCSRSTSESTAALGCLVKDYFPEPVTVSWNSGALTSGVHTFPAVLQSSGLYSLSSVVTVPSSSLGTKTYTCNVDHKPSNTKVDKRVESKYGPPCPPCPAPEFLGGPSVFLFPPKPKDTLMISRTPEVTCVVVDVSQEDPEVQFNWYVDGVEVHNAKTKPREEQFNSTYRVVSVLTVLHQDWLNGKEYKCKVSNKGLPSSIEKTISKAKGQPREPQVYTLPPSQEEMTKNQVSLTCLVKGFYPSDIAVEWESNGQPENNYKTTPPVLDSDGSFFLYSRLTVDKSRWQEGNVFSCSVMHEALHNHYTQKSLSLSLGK
light: DIQMTQSPSSLSASVGDRVTITCRASENIYSYLAWYQQKPGKSPKLLIYNARTLAEGVPSRFSGSGSGTDFTLTISSLQPEDFATYYCQYHSGSPLPFGGGTKVEIKRTVAAPSVFIFPPSDEQLKSGTASVVCLLNNFYPREAKVQWKVDNALQSGNSQESVTEQDSKDSTYSLSSTLTLSKADYEKHKVYACEVTHQGLSSPVTKSFNRGEC
notes: Humanized anti-PVRIG/TIGIT
B2: A17m0902-1708-151H7-01-C (trispecific antibody, human IgG4 S228P, kappa)
heavy: not shown
light: B1 light
notes: Type C; first residue of the 151H7 part changed from H to E; also called 151H7 H1E trispecific
B3: A17m0902-1708-151H7-C (trispecific antibody, human IgG4 S228P, kappa)
heavy: not shown
light: B1 light
notes: Type C; also called A17m0902-151H7-C
B4: A17m0902-1708-151H7-02-C (trispecific antibody, human IgG4 S228P, kappa)
heavy: not shown
light: B1 light
notes: Type C; first residue of the 151H7 part changed from H to Q; also called 151H7 H1Q trispecific
B5: A17h1-1708-30H2-D (trispecific antibody, human IgG4 S228P, kappa)
heavy: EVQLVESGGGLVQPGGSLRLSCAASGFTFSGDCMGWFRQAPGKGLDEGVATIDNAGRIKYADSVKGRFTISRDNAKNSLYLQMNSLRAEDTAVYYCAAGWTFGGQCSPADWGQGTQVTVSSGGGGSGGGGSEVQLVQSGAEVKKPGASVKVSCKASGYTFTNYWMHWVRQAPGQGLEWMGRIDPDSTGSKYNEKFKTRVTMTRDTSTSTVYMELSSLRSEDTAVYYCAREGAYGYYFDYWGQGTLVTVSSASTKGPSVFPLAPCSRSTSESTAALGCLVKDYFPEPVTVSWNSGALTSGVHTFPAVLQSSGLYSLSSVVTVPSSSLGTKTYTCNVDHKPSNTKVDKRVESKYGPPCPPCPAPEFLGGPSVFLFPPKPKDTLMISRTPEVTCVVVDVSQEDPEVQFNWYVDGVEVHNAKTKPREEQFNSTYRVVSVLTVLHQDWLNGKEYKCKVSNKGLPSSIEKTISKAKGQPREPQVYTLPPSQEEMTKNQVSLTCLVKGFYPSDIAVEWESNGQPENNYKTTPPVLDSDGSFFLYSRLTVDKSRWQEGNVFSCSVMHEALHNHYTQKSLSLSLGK
light: DIQMTQSPSSLSASVGDRVTITCRASENIYSYLAWYQQKPGKSPKLLIYNARTLAEGVPSRFSGSGSGTDFTLTISSLQPEDFATYYCQYHSGSPLPFGGGTKVEIKRTVAAPSVFIFPPSDEQLKSGTASVVCLLNNFYPREAKVQWKVDNALQSGNSQESVTEQDSKDSTYSLSSTLTLSKADYEKHKVYACEVTHQGLSSPVTKSFNRGECGGGGSGGGGSEVQLQESGGGLVQPGGSLRLSCTASGLTFSDYSMSWYRQAPGKGRELVAIISGSGVIAHYVDSVKGRFTISRDNSKNTVYLQMRSLTPEDRAVYYCRAVSDWDDYWGQGTQVTVSS
B6: A17h1-1708-151H7-B (trispecific antibody, human IgG4 S228P, kappa)
heavy: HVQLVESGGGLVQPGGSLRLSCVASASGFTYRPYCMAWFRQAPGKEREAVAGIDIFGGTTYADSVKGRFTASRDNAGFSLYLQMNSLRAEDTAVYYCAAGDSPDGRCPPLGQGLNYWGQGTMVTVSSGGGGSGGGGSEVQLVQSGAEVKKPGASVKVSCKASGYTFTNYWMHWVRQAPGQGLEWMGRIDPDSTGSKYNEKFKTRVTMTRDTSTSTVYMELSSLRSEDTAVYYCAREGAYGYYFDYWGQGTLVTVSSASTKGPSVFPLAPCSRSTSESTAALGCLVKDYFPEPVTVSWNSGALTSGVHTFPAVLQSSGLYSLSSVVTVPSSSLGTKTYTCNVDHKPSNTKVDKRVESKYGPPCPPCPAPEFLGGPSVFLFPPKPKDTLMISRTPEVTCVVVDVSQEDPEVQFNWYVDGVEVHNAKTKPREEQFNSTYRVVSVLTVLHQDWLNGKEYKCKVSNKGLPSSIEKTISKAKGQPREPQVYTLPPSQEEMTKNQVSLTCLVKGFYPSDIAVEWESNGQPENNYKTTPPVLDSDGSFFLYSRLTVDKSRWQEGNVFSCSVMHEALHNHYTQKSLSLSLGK
light: EVQLQESGGGLVQPGGSLRLSCTASGLTFSDYSMSWYRQAPGKGRELVAIISGSGVIAHYVDSVKGRFTISRDNSKNTVYLQMRSLTPEDRAVYYCRAVSDWDDYWGQGTQVTVSSGGGGSGGGGSDIQMTQSPSSLSASVGDRVTITCRASENIYSYLAWYQQKPGKSPKLLIYNARTLAEGVPSRFSGSGSGTDFTLTISSLQPEDFATYYCQYHSGSPLPFGGGTKVEIKRTVAAPSVFIFPPSDEQLKSGTASVVCLLNNFYPREAKVQWKVDNALQSGNSQESVTEQDSKDSTYSLSSTLTLSKADYEKHKVYACEVTHQGLSSPVTKSFNRGEC
B7: A17h1-1708-30H2-B (trispecific antibody, human IgG4 S228P, kappa)
heavy: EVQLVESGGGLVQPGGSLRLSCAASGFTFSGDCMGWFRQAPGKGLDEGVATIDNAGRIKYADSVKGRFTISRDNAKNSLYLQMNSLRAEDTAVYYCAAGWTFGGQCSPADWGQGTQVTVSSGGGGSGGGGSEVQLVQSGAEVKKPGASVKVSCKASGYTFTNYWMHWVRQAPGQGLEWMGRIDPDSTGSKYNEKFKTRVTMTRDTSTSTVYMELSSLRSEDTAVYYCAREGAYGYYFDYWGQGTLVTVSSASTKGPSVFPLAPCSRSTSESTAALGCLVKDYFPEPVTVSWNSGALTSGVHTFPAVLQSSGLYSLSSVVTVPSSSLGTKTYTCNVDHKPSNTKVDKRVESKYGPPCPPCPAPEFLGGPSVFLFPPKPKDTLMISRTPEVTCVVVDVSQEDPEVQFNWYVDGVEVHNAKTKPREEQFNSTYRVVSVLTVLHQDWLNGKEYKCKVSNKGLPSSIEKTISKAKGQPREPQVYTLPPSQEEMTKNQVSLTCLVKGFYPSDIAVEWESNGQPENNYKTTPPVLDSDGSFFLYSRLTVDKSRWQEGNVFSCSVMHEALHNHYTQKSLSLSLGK
light: B6 light
B8: A17h1-1708-151H7-C (trispecific antibody, human IgG4 S228P, kappa)
heavy: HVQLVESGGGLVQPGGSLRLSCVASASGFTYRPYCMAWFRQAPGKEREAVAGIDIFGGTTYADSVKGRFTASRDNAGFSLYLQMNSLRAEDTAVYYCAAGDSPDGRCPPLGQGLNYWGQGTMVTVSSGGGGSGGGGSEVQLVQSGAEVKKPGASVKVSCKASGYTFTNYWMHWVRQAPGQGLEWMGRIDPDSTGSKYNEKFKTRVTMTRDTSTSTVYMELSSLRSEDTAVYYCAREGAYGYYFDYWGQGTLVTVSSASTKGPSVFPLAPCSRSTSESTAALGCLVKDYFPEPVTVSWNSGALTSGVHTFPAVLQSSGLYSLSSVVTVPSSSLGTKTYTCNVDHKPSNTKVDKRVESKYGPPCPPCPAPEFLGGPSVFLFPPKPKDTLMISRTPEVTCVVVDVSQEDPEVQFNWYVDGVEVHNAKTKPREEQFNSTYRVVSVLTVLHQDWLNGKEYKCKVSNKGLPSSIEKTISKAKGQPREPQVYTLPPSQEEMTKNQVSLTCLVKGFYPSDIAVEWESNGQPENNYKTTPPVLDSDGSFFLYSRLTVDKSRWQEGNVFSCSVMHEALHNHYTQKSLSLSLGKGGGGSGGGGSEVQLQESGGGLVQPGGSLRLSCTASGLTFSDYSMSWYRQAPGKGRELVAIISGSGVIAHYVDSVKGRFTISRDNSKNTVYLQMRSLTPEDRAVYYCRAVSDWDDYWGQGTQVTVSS
light: B1 light
notes: Type C
B9: A17h1-1708-30H2-C (trispecific antibody, human IgG4 S228P, kappa)
heavy: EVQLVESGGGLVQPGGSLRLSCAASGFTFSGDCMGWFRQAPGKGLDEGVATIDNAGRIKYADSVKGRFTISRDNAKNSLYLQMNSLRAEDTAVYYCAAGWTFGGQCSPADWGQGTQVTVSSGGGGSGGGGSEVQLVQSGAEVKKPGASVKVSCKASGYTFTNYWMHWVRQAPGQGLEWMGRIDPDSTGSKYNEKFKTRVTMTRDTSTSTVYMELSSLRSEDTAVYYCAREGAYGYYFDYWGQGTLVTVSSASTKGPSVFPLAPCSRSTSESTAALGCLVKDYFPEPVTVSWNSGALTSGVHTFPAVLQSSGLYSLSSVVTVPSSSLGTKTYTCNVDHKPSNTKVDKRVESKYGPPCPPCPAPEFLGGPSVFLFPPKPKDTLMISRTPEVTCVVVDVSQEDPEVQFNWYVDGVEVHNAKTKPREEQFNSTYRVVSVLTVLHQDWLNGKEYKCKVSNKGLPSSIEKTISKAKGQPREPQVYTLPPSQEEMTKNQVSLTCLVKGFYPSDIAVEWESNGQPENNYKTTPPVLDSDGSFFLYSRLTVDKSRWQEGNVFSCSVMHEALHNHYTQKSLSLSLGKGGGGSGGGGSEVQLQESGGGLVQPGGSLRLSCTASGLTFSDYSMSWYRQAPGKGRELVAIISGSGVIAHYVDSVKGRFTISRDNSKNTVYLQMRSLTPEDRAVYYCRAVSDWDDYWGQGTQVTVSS
light: B1 light
notes: Type C
B10: A17h1-1708-30H2-A (trispecific antibody, human IgG4 S228P, kappa)
heavy: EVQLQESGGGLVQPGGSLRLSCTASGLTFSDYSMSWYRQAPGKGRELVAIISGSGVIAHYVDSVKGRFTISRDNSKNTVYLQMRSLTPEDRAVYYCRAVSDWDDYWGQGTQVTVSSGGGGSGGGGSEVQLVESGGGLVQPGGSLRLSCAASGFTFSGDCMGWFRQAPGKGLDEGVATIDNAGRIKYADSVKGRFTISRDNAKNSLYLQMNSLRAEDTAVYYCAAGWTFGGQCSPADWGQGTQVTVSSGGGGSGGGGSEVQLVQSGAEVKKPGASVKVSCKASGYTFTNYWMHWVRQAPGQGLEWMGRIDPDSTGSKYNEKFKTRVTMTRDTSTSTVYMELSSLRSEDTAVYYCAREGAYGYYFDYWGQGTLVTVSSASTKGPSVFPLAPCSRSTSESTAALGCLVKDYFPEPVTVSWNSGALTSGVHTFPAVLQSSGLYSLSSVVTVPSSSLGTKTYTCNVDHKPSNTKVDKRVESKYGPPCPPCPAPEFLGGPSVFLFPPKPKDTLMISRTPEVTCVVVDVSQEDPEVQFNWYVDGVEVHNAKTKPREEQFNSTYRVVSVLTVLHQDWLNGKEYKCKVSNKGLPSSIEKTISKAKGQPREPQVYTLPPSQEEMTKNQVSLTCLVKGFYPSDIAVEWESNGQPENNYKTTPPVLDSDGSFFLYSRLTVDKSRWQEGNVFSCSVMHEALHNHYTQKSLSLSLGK
light: B1 light
B11: 1708-30H2 (bispecific antibody, human IgG4 S228P, kappa)
heavy: not shown
light: B1 light
notes: Humanized anti-PVRIG/TIGIT
B12: 151H7 (Fc fusion, not shown: a dimerising Fc or GST)
chain: HVQLVESGGGLVQPGGSLRLSCVASASGFTYRPYCMAWFRQAPGKEREAVAGIDIFGGTTYADSVKGRFTASRDNAGFSLYLQMNSLRAEDTAVYYCAAGDSPDGRCPPLGQGLNYWGQGTMVTVSS
B13: 30H2 (Fc fusion, not shown: a dimerising Fc or GST)
chain: EVQLVESGGGLVQPGGSLRLSCAASGFTFSGDCMGWFRQAPGKGLDEGVATIDNAGRIKYADSVKGRFTISRDNAKNSLYLQMNSLRAEDTAVYYCAAGWTFGGQCSPADWGQGTQVTVSS
B14: 30H3 (Fc fusion, not shown: a dimerising Fc or GST)
chain: B13 chain with F27Y, T28S, F29Y

Target: T1, human PVRIG expressed on cells
Test: FACS, HEK293F cells expressing human PVRIG
Protocol: A stably transfected HEK293F cell strain expressing the human PVRIG gene, a stably transfected CHO-K1 cell strain expressing the human TIGIT gene, and Jurkat cells expressing human PD-1 were used. The cell strain was inoculated into a 96-well plate at 2×10⁵ cells/well. The plate was centrifuged at 300 g for 5 min, and the supernatant was removed. 100 μL of test antibody was added, and the plate was incubated at 4° C. for 1 h. The plate was centrifuged, and the supernatant was removed. The plate was washed 3 times with 200 μL of wash buffer (PBS+2% FBS), and 100 μL of an Alexa Fluor 488-labeled anti-human IgG secondary antibody (Invitrogen, A-11013) diluted at 1:500 was added. The plate was incubated at 4° C. for 1 h. The plate was centrifuged, and the supernatant was removed. The plate was washed 3 times with 200 μL of wash buffer (PBS+2% FBS). The cells were resuspended in 100 μL of PBS and tested on a flow cytometer (BD FACS Calibur or BD FACS Canto_ II).

Row | Binder | EC50 | EMAX
1 | B1 | 0.112 nM | 1360
2 | B2 | 0.105 nM | 1550
3 | B3 | 0.0944 nM | 1520
4 | B4 | 0.0964 nM | 1520

Target: T2, his-tagged human PVRIG (h-PVRIG-his) …
Test: ELISA, plate coated with PVRIG protein (his tag)
Protocol: (§1) ELISA assays were performed. TIGIT or PVRIG protein (his tag, Acrobiosystems, PVG-H52H4) was dissolved in PBS to 1 μg/mL, and the solution was added to a 96-well plate at 100 μL/well. The plate was coated with the antigen overnight at 4° C. The plate was washed with PBST solution three times. PBST/1% BSA solution was added, and the plate was incubated at 37° C. for 1 h for blocking. After three washes with PBST solution, different concentrations of the trispecific antibodies (diluted with PBST/1% BSA solution) were added, and the plate was incubated at 37° C. for 1.5 h. The plate was washed with PBST solution three times. […] After three washes with PBST solution, TMB solution was added at 100 μL/well. After 5 min of reaction at room temperature, 50 μL of stop solution was added. OD450 values were measured using a microplate reader, and EC₅₀ was calculated.

Row | Binder | EC50
5 | B5 | 0.0885 nM
6 | B6 | 0.154 nM
7 | B7 | 0.0583 nM
8 | B8 | 0.16 nM
9 | B1 | 0.125 nM
10 | B9 | 0.0822 nM
11 | B10 | 0.0589 nM
12 | B11 | 0.0846 nM

Target: T4, human PD-1 expressed on cells (human, UniProt Q15116 25-288)
T4 sequence (Q15116 25-288 limits assumed): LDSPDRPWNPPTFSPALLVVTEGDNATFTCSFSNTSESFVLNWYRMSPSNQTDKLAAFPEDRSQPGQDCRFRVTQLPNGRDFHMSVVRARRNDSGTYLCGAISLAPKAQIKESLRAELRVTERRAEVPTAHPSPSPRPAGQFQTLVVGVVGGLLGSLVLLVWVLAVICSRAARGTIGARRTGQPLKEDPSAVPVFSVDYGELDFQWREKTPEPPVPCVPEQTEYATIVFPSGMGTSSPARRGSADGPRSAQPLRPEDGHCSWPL
Test: cell-based or functional assay

Row | Binder | IC50 (read off the curve)
13 | B6 | ~0.4 nM
14 | B8 | ~0.8 nM

Target: T3, human TIGIT recombinant protein
Test: ELISA, plate coated with TIGIT protein
Protocol: as §1

Row | Binder | EC50
15 | B5 | 0.113 nM
16 | B7 | 0.107 nM
17 | B9 | 0.0951 nM
18 | B10 | 0.0875 nM
19 | B11 | 0.116 nM

Target: T4, human PD-1 expressed on cells
Test: cell-based or functional assay
Remark: another data set of the same source

Row | Binder | IC50, PD-1/PD-L1 NFAT reporter gene system
20 | B5 | 0.825 nM
21 | B7 | 0.344 nM
22 | B9 | 0.264 nM
23 | B10 | 0.801 nM

Target: T4, human PD-1 expressed on cells
Test: cell-based or functional assay
Remark: another data set of the same source

Row | Binder | DC:T MLR result, 0.1 nM antibody (unit not given) | DC:T MLR result, 1 nM antibody (unit not given) | DC:T MLR result, 10 nM antibody (unit not given) | DC:T MLR result, 100 nM antibody (unit not given)
24 | B5 | 115 | 116 | 122 | 136
25 | B6 | 108 | 97.8 | 136 | 148
26 | B7 | 108 | 137 | 125 | 134
27 | B8 | 118 | 136 | 151 | 152
28 | B9 | 133 | 131 | 123 | 149
29 | B10 | 118 | 118 | 124 | 128

Target: T1, human PVRIG expressed on cells
Test: cell-based or functional assay

Row | Binder | PVRIG reporter gene cell activity EC50
30 | B12 | 0.038 nM
31 | B13 | 0.176 nM
32 | B14 | 0.078 nM
